Promotion of the transcription induction ability of PPARγ in the presence of AOP2 (corrected luciferase activity, COS-1), GI-262570, promotion of the transcription induction ability of PPARγ in the presence of AOP2 (corrected luciferase activity, COS-1), GL-100085 and promotion of the transcription induction ability of PPARγ in the presence of AOP2 (corrected luciferase activity, COS-1), GW7282 data for one molecule are collected here from US20050084840A1, “Method for screening drug for improving insulin resistance” (priority 2002, published 2005).

The target of this test is GAL-PPARγ: chimera protein of the DNA binding region (1-147 amino acids) of yeast Gal4 with the ligand binding region of human PPARγ2 fused to its C terminus, expressed in COS-1 cells (yeast; human) (UniProt P04386). Description: cell-based or functional assay.

B1: full-length AOP2 with vector-derived V5 epitope and HIS6 tag at the C terminus, expressed from pcDNA-AOP2 in COS-1 cells (protein, not shown: small tags and cut ends)
chain: PGGLLLGDVAPNFEANTTVGRIRFHDFLGDSWGILFSHPRDFTPVCTTELGRAAKLAPEFAKRNVKLIALSIDSVEDHLAWSKDINAYNCEEPTEKLPFPIIDDRNRELAILLGMLDPAEKDEKGMPVTARVVFVFGPDKKLKLSILYPATTGRNFDEILRVVISLQLTAEKRVATPVDWKDGDSVMVLPTIPEEEAKKLFPKGVFTKELPSGKKYLRYTPQP
As to B1, the promotion of the transcription induction ability of PPARγ in the presence of AOP2 (corrected luciferase activity, COS-1), GI-262570 at 1.0 µM and 10 µM was determined as 3.5 fold; the promotion of the transcription induction ability of PPARγ in the presence of AOP2 (corrected luciferase activity, COS-1), GL-100085 at 1.0 to 10 µM is 4 to 6 fold; the promotion of the transcription induction ability of PPARγ in the presence of AOP2 (corrected luciferase activity, COS-1), GW7282 at 1.0 to 10 µM was 4 to 5 fold.
